Columns and labels:
[1] = biological target: T1, IFF01073 produced in E. coli without glycosylation
T1 chain: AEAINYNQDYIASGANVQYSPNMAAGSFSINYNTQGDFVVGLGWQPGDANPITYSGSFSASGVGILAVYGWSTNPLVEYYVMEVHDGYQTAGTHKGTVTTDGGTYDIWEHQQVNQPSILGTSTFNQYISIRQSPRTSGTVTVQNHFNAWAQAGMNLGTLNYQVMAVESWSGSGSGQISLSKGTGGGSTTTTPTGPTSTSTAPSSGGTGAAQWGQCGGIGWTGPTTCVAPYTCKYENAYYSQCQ

[2] = biological target: IFF03904
[3] = biological target: T2, IFF01509
T2 chain: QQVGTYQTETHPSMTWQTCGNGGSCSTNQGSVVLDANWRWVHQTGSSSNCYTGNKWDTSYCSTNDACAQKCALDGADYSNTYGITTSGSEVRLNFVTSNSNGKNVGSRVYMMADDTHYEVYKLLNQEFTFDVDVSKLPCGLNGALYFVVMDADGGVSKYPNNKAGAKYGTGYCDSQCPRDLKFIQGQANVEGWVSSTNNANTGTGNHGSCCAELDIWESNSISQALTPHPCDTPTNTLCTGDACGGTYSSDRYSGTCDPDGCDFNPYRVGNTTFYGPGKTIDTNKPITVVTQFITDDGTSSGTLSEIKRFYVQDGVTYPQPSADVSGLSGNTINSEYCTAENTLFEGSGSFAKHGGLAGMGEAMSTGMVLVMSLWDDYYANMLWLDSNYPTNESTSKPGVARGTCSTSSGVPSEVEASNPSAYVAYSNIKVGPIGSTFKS

[4] = biological target: T3, IFF01540
T3 chain: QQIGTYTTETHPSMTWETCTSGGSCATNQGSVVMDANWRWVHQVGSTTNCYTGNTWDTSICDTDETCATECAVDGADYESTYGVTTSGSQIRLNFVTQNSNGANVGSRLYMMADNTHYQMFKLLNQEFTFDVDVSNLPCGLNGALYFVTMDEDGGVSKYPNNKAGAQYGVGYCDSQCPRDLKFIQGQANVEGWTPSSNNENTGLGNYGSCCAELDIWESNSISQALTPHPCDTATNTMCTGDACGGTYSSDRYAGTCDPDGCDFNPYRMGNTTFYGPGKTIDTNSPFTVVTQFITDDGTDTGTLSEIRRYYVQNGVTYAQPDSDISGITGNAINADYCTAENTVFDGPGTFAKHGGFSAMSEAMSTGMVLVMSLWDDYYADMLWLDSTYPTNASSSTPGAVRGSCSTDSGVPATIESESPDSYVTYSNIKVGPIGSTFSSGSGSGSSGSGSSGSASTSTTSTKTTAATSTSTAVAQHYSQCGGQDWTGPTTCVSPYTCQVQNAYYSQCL

[5] = biological target: IFF06679
[6] = biological target: IFF08955v3
[7] = biological target: T4, IFF01073 produced in T. reesei with glycosylation
T4 chain: T1 chain

[8] = biological target: T5, IFF07399
T5 chain: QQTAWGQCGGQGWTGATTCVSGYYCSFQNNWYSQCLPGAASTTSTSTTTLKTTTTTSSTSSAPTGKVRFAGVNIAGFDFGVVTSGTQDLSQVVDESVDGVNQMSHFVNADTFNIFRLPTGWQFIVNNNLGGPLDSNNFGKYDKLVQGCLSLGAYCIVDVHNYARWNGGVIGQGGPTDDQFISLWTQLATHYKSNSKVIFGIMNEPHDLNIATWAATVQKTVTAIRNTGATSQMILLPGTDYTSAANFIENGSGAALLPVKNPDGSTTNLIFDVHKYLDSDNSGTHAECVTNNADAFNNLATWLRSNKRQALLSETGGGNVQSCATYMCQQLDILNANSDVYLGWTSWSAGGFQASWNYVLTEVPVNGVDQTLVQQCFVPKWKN

[9] = biological target: IFF08955
[10] = biological target: T6, IFF05588
T6 chain: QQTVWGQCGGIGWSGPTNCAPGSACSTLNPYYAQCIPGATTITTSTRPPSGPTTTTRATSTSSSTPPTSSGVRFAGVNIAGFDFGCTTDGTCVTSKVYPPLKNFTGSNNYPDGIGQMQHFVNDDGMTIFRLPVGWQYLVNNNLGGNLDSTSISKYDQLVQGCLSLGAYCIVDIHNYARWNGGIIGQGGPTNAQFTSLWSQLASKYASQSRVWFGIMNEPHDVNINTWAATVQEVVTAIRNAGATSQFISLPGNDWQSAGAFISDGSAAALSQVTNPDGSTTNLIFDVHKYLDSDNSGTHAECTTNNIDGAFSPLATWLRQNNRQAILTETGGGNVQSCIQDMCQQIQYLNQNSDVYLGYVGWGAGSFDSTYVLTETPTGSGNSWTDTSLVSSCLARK

B1: IFF05497 (protein)
chain: LAILDKPVIQPNFPGNGLASLGQGLMDHLAPTHSTWDDWGAGWIPQDCKSLVEGAGLSASDVIPFNIHYDDCAQTWTFCRHKDSPLSEITILDIFGRLPVRMRSFVRHLVFIPGAKSAGSNGDNVLLRGDIDVTVFAHEIGHSLDSHAFDPSYGVPFSTGNVWISNYNLDSAVPDPYAQTSQQENFAQQTVISLYDKVVPGGIGTIQPNWQAIFHQYATLEGYIGDVIIPGGTCTHRLTDSPPVQMSSLAKGRRALGPKPNVALSPEVEEIEAIPMKSSITMTSFDEAGKPNGTYVINL
Gel mobility change (SDS-PAGE) [1]: no | Mobility change (SDS-PAGE) [2]: yes | Mobility change (SDS-PAGE) [3]: no | Mobility change (SDS-PAGE) [4]: yes | Mobility change (SDS-PAGE) [5]: yes | Mobility change (SDS-PAGE) [6]: yes | Gel mobility change (SDS-PAGE) [7]: yes | Mobility change (SDS-PAGE) [7]: yes | Gel mobility change (SDS-PAGE) [8]: yes | Mobility change (SDS-PAGE) [8]: yes | Mobility change (SDS-PAGE) [9]: no | Mobility change (SDS-PAGE) [10]: yes | Relative late peak area (centered, scaled, averaged over 5, 10 and 15 min) [10]: -0.77 | Relative late peak area (centered, scaled, averaged over doses, 24 h; sample diluted 1-fold) [10]: -0.28

From patent US20250051821
